We go through 2 molecules from patent US20220195053A1 (SURROZEN OPERATING, published 2022).

Assay [1] has as its target T1, Mucin 13, cell surface associated (MUC-13), on human intestine HT29 cells (human, UniProt Q9H3R2 19-512).
T1 construct: whole, on cells
T1 sequence (looked up): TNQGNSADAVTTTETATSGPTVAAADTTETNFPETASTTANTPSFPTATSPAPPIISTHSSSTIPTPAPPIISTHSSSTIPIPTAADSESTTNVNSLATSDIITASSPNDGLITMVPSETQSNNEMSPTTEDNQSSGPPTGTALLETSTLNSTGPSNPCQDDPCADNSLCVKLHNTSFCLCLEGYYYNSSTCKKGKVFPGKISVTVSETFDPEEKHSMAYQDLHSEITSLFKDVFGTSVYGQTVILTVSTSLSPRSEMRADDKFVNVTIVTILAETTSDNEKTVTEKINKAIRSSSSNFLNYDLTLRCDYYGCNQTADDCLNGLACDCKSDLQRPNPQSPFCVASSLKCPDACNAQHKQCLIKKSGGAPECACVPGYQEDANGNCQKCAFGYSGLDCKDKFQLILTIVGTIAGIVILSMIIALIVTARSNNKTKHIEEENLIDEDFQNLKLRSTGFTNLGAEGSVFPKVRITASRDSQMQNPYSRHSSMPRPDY
The assay is described as follows: Flow cytometry (FACS) on MUC-13 expressing HT29 cells, antibody at 10 nM, fluorescent goat anti-human secondary antibody, compared with the anti-GFP IgG control. MUC-13 negative HEK293 cells serve as the specificity control. On the procedure:
(§1) Cell surface binding of the MUC-13 antibodies was examined by FACS at 10 nM.
(§2) The MUC-13 binders C4, C7, and C14 (see, e.g., WO2016168607A1) were cloned and produced in the full-length IgG format and their binding capacity to MUC-13 was determined by FACS analysis to MUC-13 expressing HT29 cells. Their potential binding to MUC-13 non-expressing HEK293 cells was also analyzed as a negative control. Cells were harvested and washed 2× with FACS buffer (PBS (—Ca²⁺, —Mg²⁺), 0.1% BSA, 0.5% sodium Azide) and resuspended in FACS buffer at 10⁶ cells/ml. 60 μl of the cell suspension was aliquoted to each well of a 96-well v bottom plate, and the plate was spun for 3 min at 1500 rpm to remove the FACS buffer before adding corresponding MUC-13 antibody or anti-GFP control antibody at 10 nM diluted in FACS buffer and incubated at 4C for 1 hour. Plate was then spun to remove the primary antibodies and washed 1× with FACS buffer before adding Alexa Fluor® 488 goat anti-human secondary antibody (ThermoFisher Scientific) and incubating at 4C for 30 min. This media was then removed after spinning, and the plate washed 1× in FACS buffer. Cells were then resuspended in […] FACS buffer and analyzed on a BD Accuri™ Cell Analyzers (Becton Dickinson) at 10,000 events. […]
For orientation: Flow cytometry measures light scatter and fluorescence of single cells or particles in a stream.

The target in assay [2] is T1, Mucin 13, cell surface associated …. As to the kind of experiment: Flow cytometry (FACS) on MUC-13 expressing HT29 cells, antibody at 10 nM, compared with the anti-GFP IgG control. HEK293 cells serve as the MUC-13 negative control. As to the method: as §1, §2

B1: C14 MUC-13 antibody, full-length IgG format (antibody, V domains shown)
VH: QVQLQQSGAELVRPGSSVKISCKASGYAFSTYWMNWVKQRPGQGLEWIGQIYPGDGDTYYNGNFKGKATLTADKSSSTAYMQLSSLTSEDSAVYFCAVFWDGYWGQGTTLTVSS
VL: QIVLTQSPTIMSASPGEKVTMTCSASSSVTYIHWYQQKSGTSPKRWIYDTSKLASGVPARFGGSGSGTSYSLTINSMETEDAATYYCQQWSSNPFTFGSGTKLEIKR
Consider B1, for which, in assay [1], the binding result was “binds”.

B2: C4 MUC-13 antibody, full-length IgG format (antibody, V domains shown)
VH: DVQLQESGPGLVKPSQSLSLTCSVTGYSITSGYYWNWIRQFPGNKLEWMGYISYDGSNNYNPSLKNRISITRDTSKNQFFLKLNSVTTEDTATYYCVRVPTMITSYYFDYWGQGTTLTVSS
VL: QIVLTQSPAIMSASPGEKVTISCSASSSVGYIYWYQQKPGSSPKPWIYRTSNLASGVPARFSGSGSGTSYSLTISSMEAEDAATYYCQQYHSYPPTFGGGTKLEIKR
Turning to B2, in assay [2], the binding result is given as “no binding (tested: 10 nM)”.
